According to paper PMC10540216, “Activity Guided Azide-methyllysine Photo-trapping for Substrate Profiling of Lysine Demethylases” (Journal of the American Chemical Society, 2023):

Tested on: KDM4A-I71AzF
Experiment: CASI: photo-crosslinking with HEK293T cell extracts, StrepTactin enrichment and LC-MS/MS proteomics;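 note: lysates from HEK293T cells pretreated with a KDM4 inhibitor to raise proteome methylation, affinity-purified after ±UV, gel-resolved, trypsin-digested, with exclusive unique peptides per protein averaged per condition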
Type: binding, human
Settings: sheet "Final results but with 0.01"

Row | Molecule | Fold change (+UV/-UV)
1 | SYVM_HUMAN (protein, UniProt Q5ST30 27-1063, looked up) Valine--tRNA ligase, …: SVSTQSEPHGSPISRRNREAKQKRLREKQATLEAEIAGESKSPAESIKAWRPKELVLYEIPTKPGEKKDVSGPLPPAYSPRYVEAAWYPWWVREGFFKPEYQARLPQATGETFSMCIPPPNVTGSLHIGHALTVAIQDALVRWHRMRGDQVLWVPGSDHAGIATQAVVEKQLWKERGVRRHELSREAFLREVWQWKEAKGGEICEQLRALGASLDWDRECFTMDVGSSVAVTEAFVRLYKAGLLYRNHQLVNWSCALRSAISDIEVENRPLPGHTQLRLPGCPTPVSFGLLFSVAFPVDGEPDAEVVVGTTRPETLPGDVAVAVHPDDSRYTHLHGRQLRHPLMGQPLPLITDYAVQPHVGTGAVKVTPAHSPADAEMGARHGLSPLNVIAEDGTMTSLCGDWLQGLHRFVAREKIMSVLSEWGLFRGLQNHPMVLPICSRSGDVIEYLLKNQWFVRCQEMGARAAKAVESGALELSPSFHQKNWQHWFSHIGDWCVSRQLWWGHQIPAYLVVEDHAQGEEDCWVVGRSEAEAREVAAELTGRPGAELTLERDPDVLDTWFSSALFPFSALGWPQETPDLARFYPLSLLETGSDLLLFWVGRMVMLGTQLTGQLPFSKVLLHPMVRDRQGRKMSKSLGNVLDPRDIISGVEMQVLQEKLRSGNLDPAELAIVAAAQKKDFPHGIPECGTDALRFTLCSHGVQAGDLHLSVSEVQSCRHFCNKIWNALRFILNALGEKFVPQPAEELSPSSPMDAWILSRLALAAQECERGFLTRELSLVTHALHHFWLHNLCDVYLEAVKPVLWHSPRPLGPPQVLFSCADLGLRLLAPLMPFLAEELWQRLPPRPGCPPAPSISVAPYPSACSLEHWRQPELERRFSRVQEVVQVLRALRATYQLTKARPRVLLQSSEPGDQGLFEAFLEPLGTLGYCGAVGLLPPGAAAPSGWAQAPLSDTAQVYMELQGLVDPQIQLPLLAARRYKLQKQLDSLTARTPSEGEAGTQRQQKLSSLQLELSKLDKAASHLRQLMDEPPAPGSPEL | 0.5
2 | DHX30_HUMAN (protein, UniProt Q7L2E3 1-1194, looked up) ATP-dependent RNA helicase …: MFSLDSFRKDRAQHRQRQCKLPPPRLPPMCVNPTPGGTISRASRDLLKEFPQPKNLLNSVIGRALGISHAKDKLVYVHTNGPKKKKVTLHIKWPKSVEVEGYGSKKIDAERQAAAAACQLFKGWGLLGPRNELFDAAKYRVLADRFGSPADSWWRPEPTMPPTSWRQLNPESIRPGGPGGLSRSLGREEEEDEEEELEEGTIDVTDFLSMTQQDSHAPLRDSRGSSFEMTDDDSAIRALTQFPLPKNLLAKVIQIATSSSTAKNLMQFHTVGTKTKLSTLTLLWPCPMTFVAKGRRKAEAENKAAALACKKLKSLGLVDRNNEPLTHAMYNLASLRELGETQRRPCTIQVPEPILRKIETFLNHYPVESSWIAPELRLQSDDILPLGKDSGPLSDPITGKPYVPLLEAEEVRLSQSLLELWRRRGPVWQEAPQLPVDPHRDTILNAIEQHPVVVISGDTGCGKTTRIPQLLLERYVTEGRGARCNVIITQPRRISAVSVAQRVSHELGPSLRRNVGFQVRLESKPPSRGGALLFCTVGILLRKLQSNPSLEGVSHVIVDEVHERDVNTDFLLILLKGLQRLNPALRLVLMSATGDNERFSRYFGGCPVIKVPGFMYPVKEHYLEDILAKLGKHQYLHRHRHHESEDECALDLDLVTDLVLHIDARGEPGGILCFLPGWQEIKGVQQRLQEALGMHESKYLILPVHSNIPMMDQKAIFQQPPVGVRKIVLATNIAETSITINDIVHVVDSGLHKEERYDLKTKVSCLETVWVSRANVIQRRGRAGRCQSGFAYHLFPRSRLEKMVPFQVPEILRTPLENLVLQAKIHMPEKTAVEFLSKAVDSPNIKAVDEAVILLQEIGVLDQREYLTTLGQRLAHISTDPRLAKAIVLAAIFRCLHPLLVVVSCLTRDPFSSSLQNRAEVDKVKALLSHDSGSDHLAFVRAVAGWEEVLRWQDRSSRENYLEENLLYAPSLRFIHGLIKQFSENIYEAFLVGKPSDCTLASAQCNEYSEEEELVKGVLMAGLYPNLIQVRQGKVTRQGKFKPNSVTYRTKSGNILLHKSTINREATRLRSRWLTYFMAVKSNGSVFVRDSSQVHPLAVLLLTDGDVHIRDDGRRATISLSDSDLLRLEGDSRTVRLLKELRRALGRMVERSLRSELAALPPSVQEEHGQLLALLAELLRGPCGSFDVRKTADD | 0.75
3 | DPOG1_HUMAN (protein, UniProt P54098 1-1239, looked up) DNA polymerase subunit gamma-1: MSRLLWRKVAGATVGPGPVPAPGRWVSSSVPASDPSDGQRRRQQQQQQQQQQQQQPQQPQVLSSEGGQLRHNPLDIQMLSRGLHEQIFGQGGEMPGEAAVRRSVEHLQKHGLWGQPAVPLPDVELRLPPLYGDNLDQHFRLLAQKQSLPYLEAANLLLQAQLPPKPPAWAWAEGWTRYGPEGEAVPVAIPEERALVFDVEVCLAEGTCPTLAVAISPSAWYSWCSQRLVEERYSWTSQLSPADLIPLEVPTGASSPTQRDWQEQLVVGHNVSFDRAHIREQYLIQGSRMRFLDTMSMHMAISGLSSFQRSLWIAAKQGKHKVQPPTKQGQKSQRKARRGPAISSWDWLDISSVNSLAEVHRLYVGGPPLEKEPRELFVKGTMKDIRENFQDLMQYCAQDVWATHEVFQQQLPLFLERCPHPVTLAGMLEMGVSYLPVNQNWERYLAEAQGTYEELQREMKKSLMDLANDACQLLSGERYKEDPWLWDLEWDLQEFKQKKAKKVKKEPATASKLPIEGAGAPGDPMDQEDLGPCSEEEEFQQDVMARACLQKLKGTTELLPKRPQHLPGHPGWYRKLCPRLDDPAWTPGPSLLSLQMRVTPKLMALTWDGFPLHYSERHGWGYLVPGRRDNLAKLPTGTTLESAGVVCPYRAIESLYRKHCLEQGKQQLMPQEAGLAEEFLLTDNSAIWQTVEELDYLEVEAEAKMENLRAAVPGQPLALTARGGPKDTQPSYHHGNGPYNDVDIPGCWFFKLPHKDGNSCNVGSPFAKDFLPKMEDGTLQAGPGGASGPRALEINKMISFWRNAHKRISSQMVVWLPRSALPRAVIRHPDYDEEGLYGAILPQVVTAGTITRRAVEPTWLTASNARPDRVGSELKAMVQAPPGYTLVGADVDSQELWIAAVLGDAHFAGMHGCTAFGWMTLQGRKSRGTDLHSKTATTVGISREHAKIFNYGRIYGAGQPFAERLLMQFNHRLTQQEAAEKAQQMYAATKGLRWYRLSDEGEWLVRELNLPVDRTEGGWISLQDLRKVQRETARKSQWKKWEVVAERAWKGGTESEMFNKLESIATSDIPRTPVLGCCISRALEPSAVQEEFMTSRVNWVVQSSAVDYLHLMLVAMKWLFEEFAIDGRFCISIHDEVRYLVREEDRYRAALALQITNLLTRCMFAYKLGLNDLPQSVAFFSAVDIDRCLRKEVTMDCKTPSNPTGMERRYGIPQGEALDIYQIIELTKGSLEKRSQPGP | 0
4 | NU133_HUMAN (protein, UniProt Q8WUM0 1-1156, looked up) Nuclear pore complex protein …: MFPAAPSPRTPGTGSRRGPLAGLGPGSTPRTASRKGLPLGSAVSSPVLFSPVGRRSSLSSRGTPTRMFPHHSITESVNYDVKTFGSSLPVKVMEALTLAEVDDQLTINIDEGGWACLVCKEKLIIWKIALSPITKLSVCKELQLPPSDFHWSADLVALSYSSPSGEAHSTQAVAVMVATREGSIRYWPSLAGEDTYTEAFVDSGGDKTYSFLTAVQGGSFILSSSGSQLIRLIPESSGKIHQHILPQGQGMLSGIGRKVSSLFGILSPSSDLTLSSVLWDRERSSFYSLTSSNISKWELDDSSEKHAYSWDINRALKENITDAIWGSESNYEAIKEGVNIRYLDLKQNCDGLVILAAAWHSADNPCLIYYSLITIEDNGCQMSDAVTVEVTQYNPPFQSEDLILCQLTVPNFSNQTAYLYNESAVYVCSTGTGKFSLPQEKIVFNAQGDSVLGAGACGGVPIIFSRNSGLVSITSRENVSILAEDLEGSLASSVAGPNSESMIFETTTKNETIAQEDKIKLLKAAFLQYCRKDLGHAQMVVDELFSSHSDLDSDSELDRAVTQISVDLMDDYPASDPRWAESVPEEAPGFSNTSLIILHQLEDKMKAHSFLMDFIHQVGLFGRLGSFPVRGTPMATRLLLCEHAEKLSAAIVLKNHHSRLSDLVNTAILIALNKREYEIPSNLTPADVFFREVSQVDTICECLLEHEEQVLRDAPMDSIEWAEVVINVNNILKDMLQAASHYRQNRNSLYRREESLEKEPEYVPWTATSGPGGIRTVIIRQHEIVLKVAYPQADSNLRNIVTEQLVALIDCFLDGYVSQLKSVDKSSNRERYDNLEMEYLQKRSDLLSPLLSLGQYLWAASLAEKYCDFDILVQMCEQTDNQSRLQRYMTQFADQNFSDFLFRWYLEKGKRGKLLSQPISQHGQLANFLQAHEHLSWLHEINSQELEKAHATLLGLANMETRYFAKKKTLLGLSKLAALASDFSEDMLQEKIEEMAEQERFLLHQETLPEQLLAEKQLNLSAMPVLTAPQLIGLYICEENRRANEYDFKKALDLLEYIDEEEDININDLKLEILCKALQRDNWSSSDGKDDPIEVSKDSIFVKILQKLLKDGIQLSEYLPEVKDLLQADQLGSLKSNPYFEFVLKANYEYYVQGQI | 0.8
5 | GTF2I_HUMAN (protein, UniProt P78347 2-998, looked up) General transcription factor …: AQVAMSTLPVEDEESSESRMVVTFLMSALESMCKELAKSKAEVACIAVYETDVFVVGTERGRAFVNTRKDFQKDFVKYCVEEEEKAAEMHKMKSTTQANRMSVDAVEIETLRKTVEDYFCFCYGKALGKSTVVPVPYEKMLRDQSAVVVQGLPEGVAFKHPENYDLATLKWILENKAGISFIIKRPFLEPKKHVGGRVMVTDADRSILSPGGSCGPIKVKTEPTEDSGISLEMAAVTVKEESEDPDYYQYNIQAGPSETDDVDEKQPLSKPLQGSHHSSEGNEGTEMEVPAEDSTQHVPSETSEDPEVEVTIEDDDYSPPSKRPKANELPQPPVPEPANAGKRKVREFNFEKWNARITDLRKQVEELFERKYAQAIKAKGPVTIPYPLFQSHVEDLYVEGLPEGIPFRRPSTYGIPRLERILLAKERIRFVIKKHELLNSTREDLQLDKPASGVKEEWYARITKLRKMVDQLFCKKFAEALGSTEAKAVPYQKFEAHPNDLYVEGLPENIPFRSPSWYGIPRLEKIIQVGNRIKFVIKRPELLTHSTTEVTQPRTNTPVKEDWNVRITKLRKQVEEIFNLKFAQALGLTEAVKVPYPVFESNPEFLYVEGLPEGIPFRSPTWFGIPRLERIVRGSNKIKFVVKKPELVISYLPPGMASKINTKALQSPKRPRSPGSNSKVPEIEVTVEGPNNNNPQTSAVRTPTQTNGSNVPFKPRGREFSFEAWNAKITDLKQKVENLFNEKCGEALGLKQAVKVPFALFESFPEDFYVEGLPEGVPFRRPSTFGIPRLEKILRNKAKIKFIIKKPEMFETAIKESTSSKSPPRKINSSPNVNTTASGVEDLNIIQVTIPDDDNERLSKVEKARQLREQVNDLFSRKFGEAIGMGFPVKVPYRKITINPGCVVVDGMPPGVSFKAPSYLEISSMRRILDSAEFIKFTVIRPFPGLVINNQLVDQSESEGPVIQESAEPSQLEVPATEEIKETDGSSQIKQEPDPTW | 3
